Reference: US20050147555A1 (BRACCO SUISSE, published 2005)
Read-outs that look alike come from different tables or passages of the source. Blank lines part the entries; values can stand above or below the binder they belong to. Positions of bridges follow the written chain, without caps; N, C: chain ends. Groups on a side chain read outwards from the residue. Primed or numbered codes have the meaning given here. Chains are numbered I, II in the order given. No end group written: not given here. *: point of attachment. ivDde′ = 1-(4,4-dimethyl-2,6-dioxocyclohex-1-ylidene)-3-methylbutyl, CC(C)CC(=C1C(=O)CC(C)(C)CC1=O)*; Biotin = O=C1N[C@H]2[C@H](CS[C@H]2CCCCC(=O)*)N1; AEEA = NCCOCCOCC(=O)O

What was measured:
[1] = molecular target: T1, KDR (VEGFR-2, Flk-1), full-length receptor on cells (human, UniProt P35968 20-1356); experiment: cell-based or functional assay
[2] = molecular target: T1, KDR (VEGFR-2, Flk-1), full-length …; experiment: competition: free dimer against P13-conjugated microbubbles on KDR-transfected 293H cells, % binding
Protocol: (§1) At the end of the incubation, the transfected cells were rinsed three times in PBS and examined under a microscope. Binding of the conjugated bubbles was quantified and expressed as a percentage of the surface covered by the targeted microbubbles.

[3] = molecular target: T1, KDR (VEGFR-2, Flk-1), full-length …; experiment: competition: corresponding free peptide against D23-conjugated microbubbles on KDR-transfected 293H cells, % binding (surface covered, relative)
Protocol: (§2) The transfected cells were incubated with a suspension of peptide-conjugated microbubbles in presence or absence of the corresponding free peptide (between 100 μM to 3 nM). Competition was also performed using a non-binding control peptide as a competing compound. At the end of the incubation, the transfected cells were rinsed three times in PBS and examined under a microscope. Binding of the conjugated bubbles was quantified and expressed as a percent of the surface covered by the targeted microbubbles.

[4] = molecular target: T1, KDR (VEGFR-2, Flk-1), full-length …; experiment: competition with 125I-VEGF on KDR-transfected 293H cells
Protocol: Cells were used 24 h after transfection, and to prepare the cells for the assay, they were washed 3 times with room temperature M199 medium and placed in the refrigerator. […] Each dilution was added to three separate wells of mock and KDR transfected cells. After incubating at 4° C. for 2 h, the plates were washed 5 times with cold binding buffer, gently blotted dry and checked under a microscope for cell loss. 100 μL of solubilizing solution (2% Triton X-100, 10% Glycerol, 0.1% BSA) was added to each well and the plates were incubated at room temperature for 30 minutes. The solubilizing solution in each well was mixed by pipeting up and down, and transferred to 1.2 mL tubes. Each well was washed twice with 100 μL of solubilizing solution and the washes were added to the corresponding 1.2 mL tube.

[5] = molecular target: T1, KDR (VEGFR-2, Flk-1), full-length …; experiment: competition with 125I-VEGF for specific binding to KDR-transfected 293H cells, % inhibition
Description: (§3) After washing the cells, the bound radioactivity was quantitated on a gamma counter.

[6] = molecular target: T1, KDR (VEGFR-2, Flk-1), full-length …; experiment: binding of the 99mTc-labeled scrambled dimer (D18 by legend paragraph 74; name box empty) to KDR- and mock-transfected 293H cells with and without 40% mouse serum, bound CPM
Protocol: Cells were used 24 h after transfection, and to prepare the cells for the assay, they were washed 1× with 100 μL of room temperature opti-MEMI with 0.1% HSA. […] Each dilution was added to three separate wells of mock and KDR-transfected cells. After incubating at room temperature for 1 h, the plates were washed 5 times with 100 μL of cold binding buffer (opti-MEMI with 0.1% HSA). 100 μL of solubilizing solution (0.5 N NaOH) was added to each well, and the plates were incubated at 37° C. for 10 minutes. The solubilizing solution in each well was mixed by pipeting up and down, and transferred to 1.2 mL tubes. Each well was washed once with 100 μL of solubilizing solution and the washes were added to the corresponding 1.2 mL tube.

[7] = molecular target: T1, KDR (VEGFR-2, Flk-1), full-length …; experiment: competition with 125I-labeled VEGF for binding to KDR-transfected 293H cells, % inhibition of specific binding
Description: as §3

[8] = molecular target: T1, KDR (VEGFR-2, Flk-1), full-length …; experiment: displacement of P12-XB/streptavidin-HRP complex (5.5 nM) from KDR-expressing cells
[9] = molecular target: T2, KDR-Fc (chimeric fusion of Ig Fc region with human KDR, R&D Systems #357-KD-050) (human, UniProt P35968 20-764); experiment: fluorescence polarisation against KDR-Fc
T2 construct: Bought; also called KDR Fc fusion; not shown: Ig Fc region of the bought chimera

[10] = molecular target: T1, KDR (VEGFR-2, Flk-1), full-length …; experiment: binding of the 125I-labeled dimer to KDR- and mock-transfected 293H cells with and without 40% mouse serum, CPM bound
Protocol: Binding was performed with and without 40% mouse serum to evaluate the serum effect on binding to KDR-transfected cells. After washing away the unbound compound, the cells in each well were lysed with 0.5 N NaOH and the lysates were counted with a gamma counter.

[11] = molecular target: T3, murine KDR-Fc (recombinant, R&D Systems #443-KD-050) (murine, UniProt P35918 20-762); experiment: SPR (BIAcore), murine KDR-Fc 2700 RU; KD1 = kd1/ka1
T3 construct: Bought; also called rmKDR-Fc; recombinant murine KDR-Fc; not shown: Ig Fc region of the bought chimera

[12] = molecular target: T3, murine KDR-Fc (recombinant, R&D Systems …); experiment: SPR (BIAcore), murine KDR-Fc 5000 RU; KD1 = kd1/ka1
Protocol: All samples were injected in duplicate. For association, peptides were injected at 30 μL/min for 3 minutes using the kinject program. Following a 10 minute dissociation, any remaining peptide was stripped from the rmKDR-Fc surface with a quickinject of 50 mM NaOH+1M NaCl for 12s at 75 μL/min.
Sensorgrams were analyzed using the simultaneous ka/kd fitting program in the BIAevaluation software 3.1.

[13] = molecular target: T1, KDR (VEGFR-2, Flk-1), full-length …; experiment: displacement of P12-XB/streptavidin-HRP complex (5.5 nM) from KDR-expressing cells; remark: listed apart in the source
Protocol: After determining the specific binding under each experimental condition, the IC₅₀ for each peptide was determined (where possible).

[14] = molecular target: T1, KDR (VEGFR-2, Flk-1), full-length …; experiment: P13-conjugated microbubbles on KDR-transfected 293H cells in the presence of rising free dimer (f5), % binding
Protocol: as §1

[15] = molecular target: T1, KDR (VEGFR-2, Flk-1), full-length …; experiment: competition: corresponding free peptide against P12-conjugated microbubbles on KDR-transfected 293H cells, % binding (surface covered, relative)
Protocol: as §2

T1 sequence (P35968 20-1356): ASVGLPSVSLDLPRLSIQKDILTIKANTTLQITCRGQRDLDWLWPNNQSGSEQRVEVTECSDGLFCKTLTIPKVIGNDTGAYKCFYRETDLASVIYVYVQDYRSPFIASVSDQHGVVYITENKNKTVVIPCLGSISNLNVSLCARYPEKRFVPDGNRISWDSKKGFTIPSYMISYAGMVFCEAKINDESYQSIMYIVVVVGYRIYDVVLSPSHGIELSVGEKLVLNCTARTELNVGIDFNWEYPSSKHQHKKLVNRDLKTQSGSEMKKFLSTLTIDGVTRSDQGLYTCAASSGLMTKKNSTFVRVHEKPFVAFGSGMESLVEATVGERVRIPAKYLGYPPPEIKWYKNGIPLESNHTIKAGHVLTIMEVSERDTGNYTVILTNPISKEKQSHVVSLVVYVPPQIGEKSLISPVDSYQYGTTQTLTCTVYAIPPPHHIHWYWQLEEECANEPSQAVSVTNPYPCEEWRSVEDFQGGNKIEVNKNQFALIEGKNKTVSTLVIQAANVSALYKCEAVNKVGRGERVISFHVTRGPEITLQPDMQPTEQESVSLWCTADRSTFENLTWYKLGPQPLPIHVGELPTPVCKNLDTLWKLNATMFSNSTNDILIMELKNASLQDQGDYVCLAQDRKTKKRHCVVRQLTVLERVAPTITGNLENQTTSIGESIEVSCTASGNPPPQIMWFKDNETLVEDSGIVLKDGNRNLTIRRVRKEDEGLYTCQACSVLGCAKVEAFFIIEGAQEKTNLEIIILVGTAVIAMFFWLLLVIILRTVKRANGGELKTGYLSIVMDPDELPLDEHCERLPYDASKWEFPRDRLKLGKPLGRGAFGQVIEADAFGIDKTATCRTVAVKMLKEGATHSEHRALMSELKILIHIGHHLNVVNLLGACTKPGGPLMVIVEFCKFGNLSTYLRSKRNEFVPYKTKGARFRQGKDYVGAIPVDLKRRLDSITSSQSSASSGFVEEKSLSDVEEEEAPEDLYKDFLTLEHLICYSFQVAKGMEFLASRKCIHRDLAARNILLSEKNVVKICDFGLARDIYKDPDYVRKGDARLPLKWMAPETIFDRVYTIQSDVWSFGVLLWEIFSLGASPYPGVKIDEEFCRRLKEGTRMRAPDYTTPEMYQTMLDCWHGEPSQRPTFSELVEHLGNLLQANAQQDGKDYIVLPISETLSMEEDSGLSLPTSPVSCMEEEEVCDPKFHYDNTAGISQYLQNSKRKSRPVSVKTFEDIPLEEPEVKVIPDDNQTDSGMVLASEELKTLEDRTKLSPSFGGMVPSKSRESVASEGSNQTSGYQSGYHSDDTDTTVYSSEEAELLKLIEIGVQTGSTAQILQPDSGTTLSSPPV
T3 sequence (P35918 20-762): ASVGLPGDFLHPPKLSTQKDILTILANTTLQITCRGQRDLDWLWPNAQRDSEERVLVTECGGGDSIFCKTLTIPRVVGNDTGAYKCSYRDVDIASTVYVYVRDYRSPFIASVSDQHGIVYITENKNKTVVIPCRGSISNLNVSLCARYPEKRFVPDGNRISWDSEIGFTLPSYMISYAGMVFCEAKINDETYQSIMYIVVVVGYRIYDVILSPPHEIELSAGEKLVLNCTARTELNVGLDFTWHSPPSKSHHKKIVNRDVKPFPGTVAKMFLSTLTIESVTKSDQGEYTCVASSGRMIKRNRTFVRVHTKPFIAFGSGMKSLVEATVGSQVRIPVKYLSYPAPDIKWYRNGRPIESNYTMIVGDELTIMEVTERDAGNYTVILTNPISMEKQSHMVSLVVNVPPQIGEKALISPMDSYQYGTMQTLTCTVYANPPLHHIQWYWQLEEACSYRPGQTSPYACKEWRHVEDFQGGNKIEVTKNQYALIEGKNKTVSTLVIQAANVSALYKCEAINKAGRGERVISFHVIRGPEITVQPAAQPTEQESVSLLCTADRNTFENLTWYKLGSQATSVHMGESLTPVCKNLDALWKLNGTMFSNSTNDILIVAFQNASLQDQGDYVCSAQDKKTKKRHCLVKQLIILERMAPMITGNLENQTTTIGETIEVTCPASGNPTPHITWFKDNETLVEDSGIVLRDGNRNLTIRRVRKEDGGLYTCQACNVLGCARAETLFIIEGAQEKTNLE
T2 sequence (P35968 20-764, stated change not applied): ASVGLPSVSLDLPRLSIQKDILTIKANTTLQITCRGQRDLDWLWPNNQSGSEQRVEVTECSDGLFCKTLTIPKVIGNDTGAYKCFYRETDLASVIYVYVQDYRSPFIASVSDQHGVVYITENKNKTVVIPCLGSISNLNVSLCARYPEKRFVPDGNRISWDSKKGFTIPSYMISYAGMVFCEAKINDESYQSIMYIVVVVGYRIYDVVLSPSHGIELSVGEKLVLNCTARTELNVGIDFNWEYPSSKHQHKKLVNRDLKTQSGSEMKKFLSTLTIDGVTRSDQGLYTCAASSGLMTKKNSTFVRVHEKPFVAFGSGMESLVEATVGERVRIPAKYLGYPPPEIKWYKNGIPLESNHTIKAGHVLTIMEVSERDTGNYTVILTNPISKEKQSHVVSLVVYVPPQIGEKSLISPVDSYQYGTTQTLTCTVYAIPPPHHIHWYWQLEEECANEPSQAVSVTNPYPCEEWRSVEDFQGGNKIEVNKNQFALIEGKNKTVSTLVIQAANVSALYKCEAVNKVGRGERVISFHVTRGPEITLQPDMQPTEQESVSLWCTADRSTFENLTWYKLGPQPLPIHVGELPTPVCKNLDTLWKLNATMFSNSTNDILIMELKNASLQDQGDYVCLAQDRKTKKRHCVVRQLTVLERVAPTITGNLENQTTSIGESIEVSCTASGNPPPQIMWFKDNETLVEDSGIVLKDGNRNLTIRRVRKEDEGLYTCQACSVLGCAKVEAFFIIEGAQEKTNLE

- VEGF-induced KDR phosphorylation in HUVECs (immunoblot) [1]: ≥ 50 % inhibition at 10 µM
B1: P11-D (peptide)
peptide: Ac-AQGDYVYWEIIELTGATDHTPPGGGK-NH2

- IC50 (read off the curve) [2]: ~20 nM
- IC50 (read off the curve) [3]: ~30 nM
B2: D23 (peptide)
P12-derived peptide: Ac-AGPTWCEDDWYYCWLFGTGGGK-NH2
truncated P6-derived peptide: Ac-VCWEDSWGGEVCFRYDPGGGK-NH2
modifications: disulfide I:6-I:13, II:2-II:12; not fully specified (bridges)
notes: Free, not on microbubbles (the list holds only the conjugate m37); The text says only 'corresponding free' dimeric peptide; also called free dimer

- % inhibition of 125I-VEGF binding at 0.3 µM [4]: 52.3%
- % inhibition of 125I-VEGF binding at 30 µM [4]: 96.3%
B3: P6 (peptide)
peptide: GDSRVCWEDSWGGEVCFRYDP
modifications: disulfide 6-16 (inferred)

- binding result [5]: binds
B4: PG-1 (peptide)
peptide: Ac-ERVTTCWPGEYGGVECYSVAY-NH2
modifications: not fully specified (bridges); printed as Ac-ERVTTCWPGEYGGVECYSVAY—NH2; cysteine pairing not given here

- IC50, VEGF-induced migration of HUVECs [1]: ~250 nM
B5: D17 (peptide)
peptide 1: AQDWYYDEILGRGGRGGRGGK
peptide 2: VCWEDSWGGEVCFRYDPGGGK
modifications: not fully specified; N-acetyl; C2-C12 disulfide; C-terminal amide; Lys21 side chain joined to JJ-glutaryl linker; N-acetyl; J (8-amino-3,6-dioxaoctanoyl) between Leu10 and the next Gly; C-terminal Lys side chain bears the branching Lys; C-terminal amide

- IC50, VEGF-induced migration of HUVECs [1]: 5 nM
B6: D24 (peptide)
peptide 1: AGPTWCEDDWYYCWLFGTGGGK
peptide 2: VCWEDSWGGEVCFRYDPGGGK
modifications: not fully specified; N-acetyl; C2-C12 disulfide; C-terminal amide; Lys21 side chain joined to JJ-glutaryl linker; N-acetyl; C6-C13 disulfide; C-terminal amide; Lys22 side chain bears SATA-JJ-Lys branch

- VEGF-induced KDR phosphorylation in HUVECs (immunoblot) [1]: ≥ 50 % inhibition at 10 µM
B7: P3-D (peptide)
peptide: Ac-AGWLECYAEFGHCYNFGTGGGK-NH2
modifications: disulfide 6-13 (inferred)

- VEGF-induced KDR phosphorylation in HUVECs (immunoblot) [1]: ≥ 50 % inhibition at 10 µM
B8: P9-D (peptide)
peptide: Ac-AQEPEGYAYWEVITLYHEEDGDGGK-NH2

- VEGF-induced KDR phosphorylation in HUVECs (immunoblot) [1]: ≥ 50 % inhibition at 10 µM
B9: P2-D (peptide)
peptide: Ac-AGWIECYHPDGICYHFGTGGGK-NH2
modifications: disulfide 6-13 (inferred)

- binding result [6]: no binding (tested: 10.0 uCi/mL)
B10: 99mTc-labeled D18 (peptide)
peptide 1: Ac-APGTWCDYDWEYCWLGTFGGGK-NH2
peptide 2: Ac-GVDFRCEWSDWGEVGCRSPDYGGGK-NH2
modifications: disulfide I:6-I:13, II:6-II:16; not fully specified (some residues, bridges); printed as Ac-APGTWC*DYDWEYC*WLGTFGGGK{PnAO6-Glut-K[Ac-GVDFRC*EWSDWGEVGC*RSPDYGGGK(JJ-Glut)-NH2]}—NH2; also: 99mTc complex on PnAO6
notes: also called scrambled derivative of D10

- binding result [7]: binds
B11: D3 (peptide)
peptide 1: VCWEDSWGGEVCFRYDPGGGK
peptide 2: VCWEDSWGGEVCFRYDPGGGK
modifications: not fully specified; N-acetyl; C2-C12 disulfide; C-terminal Lys amide, side chain joined to linker; N-acetyl; C2-C12 disulfide; C-terminal amide; Lys21 side chain bears Biotin-JJK branch and linker

- IC50 [8]: 108 nM
B12: P34-L (peptide)
peptide: Ac-AGPTWKEDDWYYEWLFGTGGGK-NH2
modifications: lactam 6-13
SMILES: CC(=O)N[C@@H](C)C(=O)NCC(=O)N1CCC[C@H]1C(=O)N[C@H](C(=O)N[C@@H](Cc1c[nH]c2ccccc12)C(=O)N[C@H]1CCCCNC(=O)CC[C@@H](C(=O)N[C@@H](Cc2c[nH]c3ccccc23)C(=O)N[C@@H](CC(C)C)C(=O)N[C@@H](Cc2ccccc2)C(=O)NCC(=O)N[C@H](C(=O)NCC(=O)NCC(=O)NCC(=O)N[C@@H](CCCCN)C(N)=O)[C@@H](C)O)NC(=O)[C@H](Cc2ccc(O)cc2)NC(=O)[C@H](Cc2ccc(O)cc2)NC(=O)[C@H](Cc2c[nH]c3ccccc23)NC(=O)[C@H](CC(=O)O)NC(=O)[C@H](CC(=O)O)NC(=O)[C@H](CCC(=O)O)NC1=O)[C@@H](C)O
notes: also called lactam analog of P12-G

- VEGF-induced KDR phosphorylation in HUVECs (immunoblot) [1]: ≥ 50 % inhibition at 10 µM
B13: P10-D (peptide)
peptide: Ac-AQAFPRFGGDDYWIQQYLRYTDGGK-NH2

- Kd [9]: > 2000 nM
B14: P4 (peptide)
peptide: AGDSWCSTEYTYCEMIGT
modifications: disulfide 6-13; not fully specified

- VEGF-induced KDR phosphorylation in HUVECs (immunoblot) [1]: ≥ 50 % inhibition at 10 µM
B15: P7-E (peptide)
peptide: Ac-GDWWECK(ivDde′)REEYRNTTWCAWADPGGGK-NH2
modifications: disulfide 6-17 (inferred)

- binding result [10]: binds
B16: 125I-labeled D5 (peptide)
peptide 1: VCWEDSWGGEVCFRYDPGGGK
peptide 2: AGPTWCEDDWYYCWLFGTGGGK
modifications: not fully specified; N-acetyl; C6-C13 disulfide; C-terminal Lys amide, side chain carries the branching Lys; 125I Bolton-Hunter label on the free amine; N-acetyl; C2-C12 disulfide; C-terminal amide; Lys21 side chain joined to JJ-glutaryl linker

- IC50 in the activation assay against that of D2 [1]: ≥ 100 fold lower than D2
B17: D1 (peptide)
peptide 1: AGPTWCEDDWYYCWLFGTGGGK
peptide 2: VCWEDSWGGEVCFRYDPGGGK
modifications: not fully specified; N-acetyl; C2-C12 disulfide; C-terminal Lys amide (printed as NH(CH2)4-(S)-CH(..NH)CONH2), side chain joined to linker; N-acetyl; C6-C13 disulfide; C-terminal amide; Lys22 side chain bears branch/linker
notes: J = 8-amino-3,6-dioxaoctanoyl; also called DI

- binding result [7]: binds
B18: D2 (peptide)
peptide 1: AGPTWCEDDWYYCWLFGTGGGK
peptide 2: AGPTWCEDDWYYCWLFGTK
modifications: not fully specified; N-acetyl; C6-C13 disulfide; J (8-amino-3,6-dioxaoctanoyl) between Thr18 and the C-terminal Lys amide, whose side chain is joined to the linker; N-acetyl; C6-C13 disulfide; C-terminal amide; Lys22 side chain bears branch/linker

- Kd [11]: 36.4 nM
- Kd [12]: 33.6 nM
B19: Fluorescein labeled P12-G (peptide)
peptide: Ac-AGPTWCEDDWYYCWLFGTGGGK-NH2
modifications: disulfide 6-13; also: fluorescein label (site not given here)

- IC50, VEGF-induced KDR phosphorylation in HUVECs [1]: 100 nM
- % inhibition of 125I-VEGF binding at 0.3 µM [4]: 81%
- % inhibition of 125I-VEGF binding at 30 µM [4]: 104%
B20: P12-XB (peptide)
peptide: Ac-AGPTWCEDDWYYCWLFGTGGGK([AEEA-AEEA-Biotin])-NH2
modifications: disulfide 6-13
SMILES: CC(=O)N[C@@H](C)C(=O)NCC(=O)N1CCC[C@H]1C(=O)N[C@H](C(=O)N[C@@H](Cc1c[nH]c2ccccc12)C(=O)N[C@H]1CSSC[C@@H](C(=O)N[C@@H](Cc2c[nH]c3ccccc23)C(=O)N[C@@H](CC(C)C)C(=O)N[C@@H](Cc2ccccc2)C(=O)NCC(=O)N[C@H](C(=O)NCC(=O)NCC(=O)NCC(=O)N[C@@H](CCCCNC(=O)COCCOCCNC(=O)COCCOCCNC(=O)CCCC[C@@H]2SC[C@@H]3NC(=O)N[C@@H]32)C(N)=O)[C@@H](C)O)NC(=O)[C@H](Cc2ccc(O)cc2)NC(=O)[C@H](Cc2ccc(O)cc2)NC(=O)[C@H](Cc2c[nH]c3ccccc23)NC(=O)[C@H](CC(=O)O)NC(=O)[C@H](CC(=O)O)NC(=O)[C@H](CCC(=O)O)NC1=O)[C@@H](C)O
notes: Free monomeric peptide

- IC50 [13]: 850 nM
B21: F1 (peptide)
peptide: Ac-DWYYGGGK-NH2

- binding result [14]: binds
B22: P13 conjugated to microbubbles (peptide)
peptide: AQDWYYDEILSMADQLRHAFLSGG
modifications: also: conjugated to microbubbles

- binding result [15]: binds
B23: P12 (peptide)
peptide: AGPTWCEDDWYYCWLFGT
modifications: disulfide 6-13
notes: the list holds only the microbubble conjugate m56 and other P12 derivatives

- VEGF-induced KDR phosphorylation in HUVECs (immunoblot) [1]: ≥ 50 % inhibition at 10 µM
B24: P8-D (peptide)
peptide: Ac-GDPDTCTMWGDSGRWYCFPADPGGGK-NH2
modifications: disulfide 6-17 (inferred)

- binding result [7]: binds
B25: P13-D (peptide)
peptide: Ac-AQDWYYDEILSMADQLRHAFLSGG-NH2

- IC50, VEGF-induced KDR phosphorylation in HUVECs [1]: 1000 nM
- VEGF-induced KDR phosphorylation in HUVECs (immunoblot) [1]: ≥ 50 % inhibition at 10 µM
B26: P6-D (peptide)
peptide: Ac-GDSRVCWEDSWGGEVCFRYDPGGGK-NH2
modifications: disulfide 6-16 (inferred)
